Test results taken from patent US20030022263A1 (ST JUDE CHILDREN S RESEARCH HOSPITAL, published 2003).

Molecular target: T1, endogenous eIF-4E of mouse fibroblasts (mouse, UniProt P63073 2-217)
T1 construct: mature
Assay: eIF-4E captured on a methyl-G column from mouse fibroblast lysates, Western blot for both proteins
Protocol: Fibroblasts from normal or AT mice were treated with (+) or without (−) insulin and total cellular and complexed eIF-4E and 4E-BP1 were examined by Western blot. […] The amount of 4E-BP1 bound to eIF-4E was examined by immunoprecipitating eIF-4E with a methyl-G column and then blotting for both proteins.

T1 sequence (P63073 2-217): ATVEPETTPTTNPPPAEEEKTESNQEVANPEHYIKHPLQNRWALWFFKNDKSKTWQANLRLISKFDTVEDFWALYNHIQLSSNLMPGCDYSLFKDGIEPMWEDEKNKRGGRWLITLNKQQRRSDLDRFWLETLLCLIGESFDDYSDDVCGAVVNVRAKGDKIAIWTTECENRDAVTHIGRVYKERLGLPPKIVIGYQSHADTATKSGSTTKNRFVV

binding result: binds
B1: endogenous 4E-BP1 of mouse fibroblasts (other, UniProt Q60876 2-117, looked up)
chain: SAGSSCSQTPSRAIPTRRVALGDGVQLPPGDYSTTPGGTLFSTTPGGTRIIYDRKFLMECRNSPVAKTPPKDLPAIPGVTSPTSDEPPMQASQSQLPSSPEDKRAGGEESQFEMDI
notes: mature
